Here are results for one substance from article PMC3629964.

The experiment deals with NH2-terminal-PEGylated HZ-TRAIL monomer (human) (UniProt P50591). The experiment can be described thus: SEC + other: quantitative Western blot. (In general: A western blot detects proteins with antibodies after separation by electrophoresis.)

The stoichiometry N is the number of molecules, sites or subunits per partner or assembly.

On to “6xHis-ILZ-hTRAIL(114-281) (from UniProt P50591 114-281) (ligand)”, for which the stoichiometry N was 2.
